Test results taken from the nanobody polyreactivity screen of Harvey et al. (2022).

experiment: yeast display, Sf9 membrane polyspecificity reagent, FACS + sequencing; frameworks hold sequencing errors
How it was run: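 Synthetic nanobody libraries on Saccharomyces cerevisiae BJ5465 were galactose-induced for 36–48 hours, stained 1 hour at 4 °C with 10% biotinylated, detergent-solubilized Sf9 membrane reagent and enriched on streptavidin microbeads. FACS then separated cells into low and high (top ~1%) gates by anti-HA (expression) and streptavidin (reagent binding) fluorescence. Genes were colony-PCR amplified, MiSeq 2 × 250 sequenced and CDR-length filtered. A clone's polyreactivity label is that of its gate of origin.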

Sequence	polyreactivity (PSR sort gate)
QVHLVESGGGLVHAGGSLRLSCAASGSTFPGYGMGWYRQAPGQERELVATNRNGGITNYADSVKGRFTISRDNAKNTVYLQMNSLKAEDTAVYYCAADVVQYLYYFRLDYWGQGTQVTVSS	low polyreactivity
QVHLVESGGGLVKAGGSLRLSCAASGRIFDNYVMGWYRQAPGKERELVAAISSGGGTYYADSVKGRFTISLDNAKNTVYLQMNSLKPEDTAVYYCAAAAYYADFDYWGQGTQVTVSS	low polyreactivity
QVHLVESGGGLVNAGGTLRLSCAASGSTYSRYAMGWYRQAPVKESELVAAITRSGGSTYYADSVKGRFTISRDNAKNTVYLQMNSLKPEDTAVYYCNRPRLYGGSPYYYWGQGTQVTVSS	high polyreactivity
QVHLVESGGGLVQAGCSLRLSCAASGSTISRYAMGWNRQAPGKETELVATITGGGRTYYADSVKGRFTISRDNAKNTVYLQMNSLKPEDTAVYYCAVRGYHQYKYGYWGQGTQVTVSS	high polyreactivity
QVHLVESGGGLVQAGCSLRLSCAASGSTSASYAMGCDRQAPGKERELVAAISGRGTTTYYADSVKGRFTISRDNAKNTVYLQMNSLKPEDTAVYYCAVYRRGGVEAFLYWGQGTQVTVSS	high polyreactivity
QVHLVESGGGLVQAGCSLRLSSSASGFTFVRNAMGWYRQAPGKERELVAAISKSGGRTYYTDSVKGRFTISRDNAKNSVYLHLNSLIPEDTAVYYCASDPVSDYYGYGYWGQGTQVTVSS	high polyreactivity
QVHLVESGGGLVQAGGCLRLSCAASGYIFKSYVMGWYRQAPGKERELVAAITWSGGSTYYADSVKGRFTMSRDNAKNTVYFQMNSLKPEDTAVYYCAAYPRRYRTTYDYWRQGTQVTVSS	high polyreactivity
QVHLVESGGGLVQAGGRLRLSCAASGRIFGTNAMGWYRQAPGKERELVATITRGGGNTYYADSVKGRFTISRDKAKNTVYLQRNSLKPEDTAVYYCAAKFHRFAWFSHYDYWGQGTQVTVSS	low polyreactivity
QVHLVESGGGLVQAGGSHRLSCAASGSIFRYNAMGWYRQAPGKEREFVAIISYSGVRTYYADSVKGRFTISRDNAKNTVYLEMNSLKPEDTAVYYCAADFKQKGHRTRTTYWGQGTQVTVSS	high polyreactivity
QVHLVESGGGLVQAGGSHRLSCAASGSIFWYNAMGWYRQAPGKERELVAGITYGGDTNYADSVKGRFTISRDNAKNTVYLQMNSLKPEDTAVYYCAKRWYGGRRYDYWGQGTQVTVSS	low polyreactivity
QVHLVESGGGLVQAGGSLHLSCAPSGRTFGYYAKGGYRQAPGKEREFVAAISHSAGSTSYADSVKGRFTLSRDNAKNTVYLQMNSLKPEDTAVYYCATPSQLHPYEYWGQGSQVTVSS	low polyreactivity
QVHLVESGGGLVQAGGSLLLSCAASGFTFTAYAMGWYRQAPGKERELVAAISYRGGRTNYAYSVKGRFTISRDNAKNTVYLQMNSLKPEDTAVYYCASRQGISTREMDYWGQGTQVTVSS	high polyreactivity
QVHLVESGGGLVQAGGSLLLSCGASGITFVTYAMGWYRQAPGKEREFVPAISRSGGRTYYADSVKGRFTISRDNAKNTVYLQMNSLKPEDTAVYYCASDVFLLYSFTIYDYWGQGTQVTVSS	high polyreactivity
QVHLVESGGGLVQAGGSLRISCAASGFTFRYNAMGWNRQAPGKERELVAAISRGTITNYADSVKGRFTISRDNAKNTVYLQMNSLKPEDTAVYYCAARYPGHFRFYYWGQGTQVTVSS	high polyreactivity
QVHLVESGGGLVQAGGSLRISCAASGFTFVWYAMGWYRPPPGKERELVAALSRRGTRTYYADSVKGRFSISRDNAKNTVYLQMNSLKPEDTAVYYSAASNGYEAVTYDYWGQGTQVTVSS	high polyreactivity
QVHLVESGGGLVQAGGSLRISCAASGLIFPDYTMGWYRPAPGKESELVAVITDGDSTYYADSVKGRFTISRDNAKNTVYLQMNSLKPEDTAVYYCASELDGSKYTLDYWGQGTQVTVSS	low polyreactivity
QVHLVESGGGLVQAGGSLRISCAAYGRTFRYYAMGCYRQAPAKDRELVAGISSSGDRTYFADSVKGRFTISRDTAKNTVYLQMNSLKPEDTAVYYCAADRGARGDYYWGQGTQVTVSS	high polyreactivity
QVHLVESGGGLVQAGGSLRISGAASGSTFGTYAMGWYRQAPGKERELVAAITSGGSTDYADSVKGRFTISRDNAKNTVYLQMNSLKPEDTAVYYCTARGYGYLGRKGGYSYGYYYWGQGNQVTVSS	low polyreactivity
QVHLVESGGGLVQAGGSLRLICAASGFIFRQYAMGWYRQAPGKERELVAAISYRGASTYYADSVKGRFTISRDNAKNTVYLQMNSLKPEDTAVYYCADRYYNPWARVSGYDYWGQGTQVTVSS	high polyreactivity
QVHLVESGGGLVQAGGSLRLRCAASGIIFRRYAMGWYRQAPGKESEFVAAIRYTGGGTYYADSVKGRFTISRDNAKNTVYLQMNSLQPEDTAVYYCAASSRVSKSHLYGYWGQGTQVTVSS	high polyreactivity
QVHLVESGGGLVQAGGSLRLRCAASGSIFLLYAMGWYRQPPGKGRELVAAITYSGGRTYADSVKGRFTISRDNAKNTGYLQMISLKPEDTAVNYCATDAPAPKYDYWGQGTQVTVSS	low polyreactivity
QVHLVESGGGLVQAGGSLRLRCDASGSIFKPYARGWYRQAPGKERELVAGITAGGASTYYADSVKGRFTISRDNAKNTVYLQMNSLKPEDTAVYYCAAGDYQSGVRYDYWGQGTQVTVSS	low polyreactivity

Sequence	polyreactivity (PSR sort gate)
QVHLVESGGGLVQAGGSLRLSCAAAGSTSARYAMGWYRQPPGKERELVATITRSGTTKYADSVKGRFTISRDNAKNTVYLQMNSLKPEDTAVYYCNTDTYFPLYDYWGQGTQVTVSS	low polyreactivity
QVHLVESGGGLVQAGGSLRLSCAACGLTFTHYTMGWYRQAPGKERELVAAITTSGGSTYYADSLKGRFTISRDNAKKTVYLQLNSLKPEDTPVYYCAADLGGNSRLDYWGQGTQETVSS	high polyreactivity
QVHLVESGGGLVQAGGSLRLSCAACGRTFRSNALGWYSQAPGTEREFVAALSGRGGITYFADSVTGRFSISRDNAKNTVYLQMNSLKPEDTAVDYCNRDVKFHDYVYVTGINSPGYNYWGQGTQVTVSS	low polyreactivity
QVHLVESGGGLVQAGGSLRLSCAASAFTFSQYAMGWYRQAPGKERELVAVISINGGSTYYADSVKGRFTISRDNAKNTVYLQMNSLKPEDTAVYYCAADDTDSEYYGYDYWGQGTQVTVSS	low polyreactivity
QVHLVESGGGLVQAGGSLRLSCAASGFIFAGYTMGWYRQAPRKERELVAAINSGGSTKYADSVKGRFTISRDNAKNTVYLQMNSLKPEDTAVSYCNADYGWYFLFDYWGQGTQVTVSS	low polyreactivity
QVHLVESGGGLVQAGGSLRLSCAASGFIFDYYAMGWYRQAPGKERELVAAITGSGGGTYYADSVKGRFTISRDNAKNTVYLQMNSLKPEDSAVYYCNAYVPYPYSSEVQDYDYWGQCTQVTVSS	high polyreactivity
QVHLVESGGGLVQAGGSLRLSCAASGFIFGRNAMGWYRQAPGKEREFVAALTRIGGNTYYADSVKGRFTISRDNAKNTVYLQMNSLKPEDTAVYYCAARLSYFHAYGFYWGQGTQVTVSS	high polyreactivity
QVHLVESGGGLVQAGGSLRLSCAASGFIFLPYAMGSYRQAPGKERELVAAITRGGRTYYADSVKGRFTISRDNAKNTVYLQMNSLKPEDTAVYYCAAVVWAPFYEFYYWGQGTQVTVSS	low polyreactivity
QVHLVESGGGLVQAGGSLRLSCAASGFIFNVYAMGWYRQAPGKERELVAAISFSGTSTYYADSVKGRFTISRDNAKNTVYLQMNSLKPEDTAVYYCAARYWSRDQWPRSLYYWGQGTQVTVSS	high polyreactivity
QVHLVESGGGLVQAGGSLRLSCAASGFIFPAYVMGWYRQAPGKERELVAVIGSGGSTSYADSVKGRFTISRDNAKNTVYLQMNSLKPEDTAVYYCTADPTWFGYVYYQYDYWGQGTKVTVSS	low polyreactivity
QVHLVESGGGLVQAGGSLRLSCAASGFIFRRYAMGWYRQAPGKERELVAAITSSGTSTYYADSVKGRFTISRDNAKNTVYLQMNSLKPEDAAVYFCNRDNYVRWIREDFDYWGQGTQVTVSS	high polyreactivity
QVHLVESGGGLVQAGGSLRLSCAASGFIYWAYAMGWYRQAPGKERELVAGITRSGGSTYYADSVKGRFTISRDNAKNTVYLQMNSLKPEDTAVYYCAADFRYNGGYWGQGTQVTVSS	high polyreactivity
QVHLVESGGGLVQAGGSLRLSCAASGFTCGYNAMGWYRQAPGKETELVATICGGGRTKYADSVKGRFTLSRDNAKNTVYLQMNSLKPEDTAVYYCNVVQTYYRGSYIYIKYGYWGQGTQVTVSS	high polyreactivity
QVHLVESGGGLVQAGGSLRLSCAASGFTFDQNAMGWYRQAPGKERELVAAISIGGSTYYADSVKGRFTISRDNAKNTVYLQMNSLKPEDTAVYYCATRNIYFSSVDYWGQGTQVTVSS	high polyreactivity
QVHLVESGGGLVQAGGSLRLSCAASGFTFPLYARGLYRQAPGKERELVAVINSDGGRTYYADSVKGRFTISRDNAKYTVYLQMNSLKPEDTAVYYCATRATWYYWGQGTQVTVSS	high polyreactivity
QVHLVESGGGLVQAGGSLRLSCAASGFTFRFYAMGCYIQAPGKERELVAAISSTGIRTYYADSLKGRFTISRDNSKNTDYLQMNSLKPEDTAVYYCAKLHRDSILDYWGQGTQVTVSS	high polyreactivity
QVHLVESGGGLVQAGGSLRLSCAASGFTFRYYTMGWYRQAPGKERELVARITWSGGITYYADSVKGRFTISRDNAKNTVYLQMNSLKPEDTAVYYCNAERRWAAYDYWGQGTQVTVSS	high polyreactivity
QVHLVESGGGLVQAGGSLRLSCAASGFTFVSYAMGWYRQAPGKESELVAAISWSSARTYYADSVKGRFTISRHNAKNTVYLQRNSLKPEDTAVYYCNAVRGFSSSRGGYNYWGQGTQVTVSS	high polyreactivity
QVHLVESGGGLVQAGGSLRLSCAASGFTFVYYTMGWYRQAPGKERELVAAITYGGNTYYADSVKGRFTISRDNAKNTVYLQMNSLKPEDTAVYYCAARYISSYDWGQGTEVTVSS	high polyreactivity
QVHLVESGGGLVQAGGSLRLSCAASGFTFYYYAMGWYRQAPGKEREFVAAITRGGGSTYYADSVKGRFTISRDKAKNSVYLQMNSLKPEDTAVYYCAADPQSTIRDYWGQGTQVTVSS	high polyreactivity
QVHLVESGGGLVQAGGSLRLSCAASGFTLRHNTIGGYRQSPGKERELVAAISIGGRTYYADSVKARFTISRDNAKNTGYLQMNSLKPEDTAVYYCGKLDRGQSPRYDFWGQGTQVSVSS	high polyreactivity
